Source: patent publication US9493781B2, “Synthetic brassica-derived chloroplast transit peptides” (DOW AGROSCIENCES LLC, priority 2012, dated 2016)

Assays:
Arabidopsis [1] = assay: dgt-28, dgt-32, dgt-33, dgt-3, dgt-7 transformed Arabidopsis (T1, T2, T3) response to postemergence glyphosate, % visual injury; assay type: in vivo, Arabidopsis thaliana; settings: 14 days after application
From the text: Transgenic T1 Arabidopsis plants containing the dgt-28 transgene were sprayed with differing rates of glyphosate. Elevated rates were applied in this study to determine the relative levels of resistance (105, 420, 1,680 or 3,360 g ae/ha). A typical 1× usage rate of glyphosate that will control non-transformed Arabidopsis is 420 g ae/ha. […] The T1 Arabidopsis plants that were used in this study were variable copy number for the dgt-28 transgene. The low copy dgt-28 T1 Arabidopsis plants were self-pollinated and used to produce T2 plants.
Results of Glyphosate Selection of Transformed dgt-28 Arabidopsis Plants. The Arabidopsis T1 transformants were first selected from the background of untransformed seed using a glufosinate selection scheme. Three flats or 30,000 seed were analyzed for each T1 construct. The T1 plants selected above were molecularly characterized and representative plants with variable copy number were subsequently transplanted to individual pots and sprayed with various rates of commercial glyphosate as previously described. The response of these plants is presented in terms of % visual injury 2 weeks after treatment (WAT). […] An arithmetic mean and standard deviation is presented for each construct used for Arabidopsis transformation. The range in individual response is also indicated in the last column for each rate and transformation. Wild-type, non-transformed Arabidopsis (c.v. Columbia) served as a glyphosate sensitive control.
T2Arabidopsis Data. The second generation plants (T2) of selected T1 Arabidopsis events which contained low copy numbers of the dgt-28 transgene were further characterized for glyphosate tolerance. Glyphosate was applied as described previously. The response of the plants is presented in terms of % visual injury 2 weeks after treatment (WAT). […] An arithmetic mean and standard deviation are presented for each construct used for Arabidopsis transformation. The range in individual response is also indicated in the last column for each rate and transformation. Wild-type, non-transformed Arabidopsis (cv. Columbia) served as a glyphosate sensitive control. In the T2 generation hemizygous and homozygous plants were available for testing for each event and therefore were included for each rate of glyphosate tested. Hemizygous plants contain two different alleles at a locus as compared to homozygous plants which contain the same two alleles at a locus. Variability of response to glyphosate is expected in the T2 generation as a result of the difference in gene dosage for hemizygous as compared to homozygous plants. The variability in response to glyphosate is reflected in the standard deviation and range of response.
T3 Arabidopsis Data. The third generation plants (T3) of selected T2 Arabidopsis events which contained low copy numbers of the dgt-28 transgene were further characterized for glyphosate tolerance. […] Glyphosate was applied as described previously. The response of the plants is presented in terms of % visual injury 2 weeks after treatment (WAT). […] An arithmetic mean and standard deviation are presented for each construct used for Arabidopsis transformation. The range in individual response is also indicated in the last column for each rate and transformation. Wild-type, non-transformed Arabidopsis (cv. Columbia) served as a glyphosate-sensitive control.

Arabidopsis [2] = assay: Heritability progeny test of T1 families (T2 plants) with glufosinate, Arabidopsis; assay type: in vivo, Arabidopsis thaliana; settings: progeny test of 100 T2 plants, glufosinate 200 g ae/ha
From the text: Heritability. Confirmed transgenic T1 Arabidopsis events were self-pollinated to produce T2 seed. These seed were progeny tested by applying Ignite™ herbicide containing glufosinate (200 g ae/ha) to 100 random T2 siblings. […] The T1 families (T2 plants) segregated in the anticipated 3 Resistant: 1 Sensitive model for a dominantly inherited single locus with Mendelian inheritance as determined by Chi square analysis (P>0.05). […] Seed were collected from 5 to 15 T2 individuals (T3 seed). Twenty-five T3 siblings from each of 3-4 randomly-selected T2 families were progeny tested as previously described.

[3] = Table 8, T1 Arabidopsis, 105 g ae/ha glyphosate
[4] = Table 8, T1 Arabidopsis, 420 g ae/ha glyphosate
[5] = Table 8, T1 Arabidopsis, 1680 g ae/ha glyphosate
[6] = Table 8, T1 Arabidopsis, 3360 g ae/ha glyphosate
[7] = Table 10, T1 Arabidopsis, 1,680 g ae/ha glyphosate
[8] = Table 12, T2 Arabidopsis, 1 copy, 420 g ae/ha glyphosate
[9] = Table 12, T2 Arabidopsis, 1 copy, 840 g ae/ha glyphosate
[10] = Table 12, T2 Arabidopsis, 1 copy, 1680 g ae/ha glyphosate
[11] = Table 12, T2 Arabidopsis, 1 copy, 3360 g ae/ha glyphosate

B1: pDAB105531: TraP8 v2 -- dgt-28 v5: binary construct TraP8 v2: dgt-28 v5 (SEQ ID NO:34) (nucleic acid)
DNA: ATGGCTCAATCTAGCAGAATCTGCCACGGTGTGCAGAACCCATGTGTGATCATTTCCAATCTCTCCAAATCCAACCAGAACAAATCTCCTTTCTCAGTCAGCCTCAAGACTCACCAGCAGCAGCGTCGTGCTTACCAGATATCTAGCTGGGGATTGAAGAAGTCAAACAACGGGTCCGTGATTCGTCCGGTTAAGGCAGCAAGAGGGATGCCAGCCTTGTCTTTACCTGGATCAAAGAGTATCACAGCTAGGGCACTCTTTCTTGCTGCTGCTGCTGATGGGGTTACTACTTTGGTGAGGCCATTGAGAAGTGACGACACAGAAGGATTCGCTGAGGGGTTAGTTCGTTTAGGCTATCGTGTAGGGAGGACACCCGATACTTGGCAAGTCGATGGCAGACCACAAGGACCAGCAGTGGCTGAGGCTGACGTCTACTGTAGAGACGGAGCAACCACCGCTAGATTCTTGCCAACCTTAGCAGCTGCTGGTCACGGAACATACAGATTTGATGCTTCACCACAGATGAGGAGACGTCCTCTTTTGCCCTTAAGCAGAGCCTTGAGGGATTTGGGTGTCGATCTTAGACACGAAGAAGCTGAAGGTCATCACCCTCTGACTGTCCGTGCTGCTGGGGTTGAAGGAGGAGAGGTTACTTTGGATGCTGGTCAGTCAAGTCAGTATCTCACTGCCTTGTTGCTCCTTGGTCCCCTTACAAGACAAGGACTGAGGATAAGGGTTACTGATTTGGTGTCAGCACCATACGTGGAGATTACGCTTGCAATGATGAGGGCTTTCGGAGTTGAAGTGGCAAGGGAGGGAGATGTGTTCGTTGTTCCACCTGGTGGATATCGTGCAACTACGTATGCTATAGAACCCGACGCAAGTACTGCTTCTTACTTCTTCGCAGCTGCTGCTTTGACTCCTGGAGCTGAAGTGACTGTACCTGGGTTAGGCACGGGAGCACTTCAAGGAGATTTGGGATTTGTAGATGTCTTAAGGAGAATGGGAGCCGAGGTGTCCGTAGGAGCTGATGCAACCACTGTTAGAGGAACTGGTGAATTGCGTGGCCTTACAGCCAACATGAGAGACATAAGTGATACGATGCCGACCCTCGCTGCAATAGCACCCTTTGCTAGTGCTCCAGTTAGAATCGAGGATGTTGCCAACACTCGTGTCAAAGAATGTGACAGACTTGAGGCTTGTGCAGAGAACCTTAGGAGGTTGGGAGTAAGGGTTGCAACGGGTCCGGACTGGATTGAGATACACCCTGGTCCAGCTACTGGTGCTCAAGTCACAAGCTATGGTGATCACAGAATTGTGATGTCATTTGCAGTGACTGGACTTCGTGTGCCTGGGATCAGCTTCGACGACCCTGGCTGTGTTCGTAAGACTTTTCCTGGGTTTCACGAGGCTTTCGCAGAATTGAGGCGTGGCATTGGGAGCTGA
modifications: In-frame fusion of dgt-28 v5 and TraP8 v2
% Injury Ave (Arabidopsis [1]; [3]): 10.8%
% Injury Range (%) (Arabidopsis [1]; [3]): 0-25%
No. plants with 20-40% injury (Arabidopsis [1]; [3]): 1
No. plants with <20% injury (Arabidopsis [1]; [3]): 3
No. plants with >40% injury (Arabidopsis [1]; [3]): 0
% Injury Ave (Arabidopsis [1]; [4]): 22.8%
% Injury Range (%) (Arabidopsis [1]; [4]): 8-50%
No. plants with 20-40% injury (Arabidopsis [1]; [4]): 0
No. plants with <20% injury (Arabidopsis [1]; [4]): 3
No. plants with >40% injury (Arabidopsis [1]; [4]): 1
% Injury Ave (Arabidopsis [1]; [5]): 5.3%
% Injury Range (%) (Arabidopsis [1]; [5]): 0-8%
No. plants with 20-40% injury (Arabidopsis [1]; [5]): 0
No. plants with <20% injury (Arabidopsis [1]; [5]): 4
No. plants with >40% injury (Arabidopsis [1]; [5]): 0
% Injury Ave (Arabidopsis [1]; [6]): 29.3%
% Injury Range (%) (Arabidopsis [1]; [6]): 22-35%
No. plants with 20-40% injury (Arabidopsis [1]; [6]): 4
No. plants with <20% injury (Arabidopsis [1]; [6]): 0
No. plants with >40% injury (Arabidopsis [1]; [6]): 0
% Injury Ave (Arabidopsis [1]; [7]): 5.3%
% Injury Range (%) (Arabidopsis [1]; [7]): 0-8%
No. plants with 20-40% injury (Arabidopsis [1]; [7]): 0
No. plants with <20% injury (Arabidopsis [1]; [7]): 4
No. plants with >40% injury (Arabidopsis [1]; [7]): 0
% Injury Ave (Arabidopsis [1]; [8]): 0.5%
% Injury Range (%) (Arabidopsis [1]; [8]): 0-2%
No. plants with 20-40% injury (Arabidopsis [1]; [8]): 0
No. plants with <20% injury (Arabidopsis [1]; [8]): 4
No. plants with >40% injury (Arabidopsis [1]; [8]): 0
% Injury Ave (Arabidopsis [1]; [9]): 1.3%
% Injury Range (%) (Arabidopsis [1]; [9]): 0-5%
No. plants with 20-40% injury (Arabidopsis [1]; [9]): 0
No. plants with <20% injury (Arabidopsis [1]; [9]): 4
No. plants with >40% injury (Arabidopsis [1]; [9]): 0
% Injury Ave (Arabidopsis [1]; [10]): 7.5%
% Injury Range (%) (Arabidopsis [1]; [10]): 5-15%
No. plants with 20-40% injury (Arabidopsis [1]; [10]): 0
No. plants with <20% injury (Arabidopsis [1]; [10]): 4
No. plants with >40% injury (Arabidopsis [1]; [10]): 0
% Injury Ave (Arabidopsis [1]; [11]): 7.5%
% Injury Range (%) (Arabidopsis [1]; [11]): 0-15%
No. plants with 20-40% injury (Arabidopsis [1]; [11]): 0
No. plants with <20% injury (Arabidopsis [1]; [11]): 4
No. plants with >40% injury (Arabidopsis [1]; [11]): 0
T1 Families Tested Segregating at 1 Locus (%) (Arabidopsis [2]): 100%
